Experimental data as given in US20230331781A1, “PAR4 DERIVED PEPTIDES, ANALOGS AND USES THEREOF” (Yissum Research Development Company of the Hebrew …, priority 2019, published 2023).
Entries after “also recorded” stand apart in the source; their conditions may differ. Each block holds one molecule with its values, some of them ahead of it.

Assays:
MDA-MB-231 cells = assay: PAR4 induced Matrigel invasion of MDA-MB-231 cells; format: cell-based, human; conditions: AYPGKF activated MDA-MB-231 cells, FIGS. 3B and 3C
PAR4-Akt association = biological target: T1, PAR4-Akt association (Homo sapiens, UniProt P31749); assay: PAR4-Akt association, immunoprecipitation in HEK293 cells transfected with flg-Par4 and AYPGKF activated; format: cell-based; conditions: HEK 293T cells, wt flg-Par4, AYPGKF activation, FIG. 3D
T1 construct: FLAG; expressed in transfected cells
Experimental: (§1) Experiments shown in FIG. 3A-3C were carried out in MDA-MB-231 cells. […] Unpaired Student's t test was used. This experiment is a representative of three independent experiments performed in triplicates. […] HEK 293T cells were transfected with wt flg-Par4 followed by AYPGKF activation of PAR4. IP was performed using anti fig abs of cells treated or not with CTP4-A peptide and immunoblotting with anti-Akt abs.
FIG. 4A—PH-Akt module alone binds PAR4-C-tail but not mutant R25C. HEK 293 cells were transiently transfected with flg-Par4 construct and either with GFP-PH-Akt domain alone or GFP-R25C. IP of cell lysates following PAR4 AYPGKF activation was carried out using anti-flg abs. Detection of either Akt-PH domain alone associated with PAR4 was performed with anti-GFP. […] FIG. 4C—The PI3K inhibitor […] inhibits the binding of Akt to PAR4. Treatment of HEK 293 cells with LY294002 for various time points or not, following transient transfection with flg-Par4 and AYPGKF activation was performed. Cell lysates were immunoprecipitated with anti-flg antibodies, and anti-Akt was used to assess the association of Akt with the PAR4 C-tail. […] Amino acid residues of PAR4- and PAR2-PH binding motifs. FIG. 4E—mutations inserted into flg-Par4 generated flg-Par4MutE346A. HEK293 cells were transiently transfected with either wt flg-Par4 or flg-Par4MutE346A. IP of cell lysates following PAR4 activation was carried out using anti-flg abs. Detection of PAR4-Akt association was performed by anti Akt Abs. While association with wt Par4 is seen after 5 and 10 min AYPGKF PAR4 activation, when using flg-Par4 E346A no inhibition is seen and effective association with Akt is seen at 30 min activation. FIG. 4F—utations inserted into flg-Par4 generated flg-Par4Mut F347A and flg-Par4Mut D349A. HEK293 cells were transiently transfected with either wt flg-Par4 or flg-Par4Mut F347A or flg-Par4Mut D349A. IP of cell lysates following PAR4 activation was carried out using anti-f/g abs. Detection of PAR4-Akt association was performed by anti Akt Abs. While association with wt Par4 is seen after 5 min AYPGKF PAR4 activation, no such binding is obtained when using either flg-Par4 F347A or flg-Par4D349A.
HEK293 cells were transiently transfected with flg-Par4 followed by AYPGKF PAR4 activation in the presence and absence of PAR4c (4-4) within the range of 50 nM-150 μM. IP of cell lysates following different periods of activation was carried out using anti flg abs. Detection of Akt was performed by anti Akt abs. β-actin serves as a control gene for loading. […] Matrigel invasion before and after AYPGKF PAR4 activation and in the presence and absence of PAR4 c(4-4) inhibitor in the activated PAR4 cells. […] FIG. 8C—Histograms represent quantification of the cells/HPF invaded the Matrigel layer. […]

PAR4 and Akt = biological target: T2, PAR4 and Akt (Homo sapiens, UniProt P31749); assay: Inhibition of binding of PAR4 to Akt by PAR4 C-tail peptides (FIG. 3A); format: cell-based; conditions: MDA-MB-231 cells
T2 construct: endogenous in cells; host or cells: MDA-MB-231
Experimental: as §1
We evaluated the ability of these peptides to inhibit the binding of PAR4 to Akt protein. […] The PH-domain of Akt/PKB associates with PAR4. To elucidate whether Akt/PKB binds via its PH-domain, constructs of either wt Akt/PKB PH-domain were applied alone or an Akt/PKB-PH domain mutant R25C, impaired in its lipid binding capability of the Akt/PKB-PH domain. Transient transfections of flg-hPar4 and either wt GFP-PH-domain or PH-domain R25C mutant were carried out in HEK293 cells. Cells were activated by the PAR4 AYPGKF ligand for the indicated periods of time and the lysates were further processed for IP analysis. Distinct binding of GFP-Akt/PKB-PH domain module alone with the PAR4 C-tail was obtained (FIG. 4A). […] The mutant constructs (e.g., wt: YVSAEFRDKVRA; mutant F347L: YVSAELRDKVRA=PAR4MutF; mutant D349A: YVSAEFRAKVRA=PAR4MutD) were further evaluated for association with Akt/PKB. […]

[1] = biological target: T3, Akt/PKB (protein kinase B) (UniProt P31749 1-480, limits assumed); assay: co-IP: anti-flg IP from HEK293 cells transfected with the mutant, anti-Akt blot (FIG. 4F)
T3 construct: Endogenous Akt of human cell lines
Experimental: FIG. 4A—PH-Akt module alone binds PAR₄-C-tail but not mutant R25C. HEK 293 cells were transiently transfected with flg-Par4 construct and either with GFP-PH-Akt domain alone or GFP-R25C. IP of cell lysates following PAR₄ AYPGKF activation was carried out using anti-flg abs. Detection of either Akt-PH domain alone associated with PAR₄ was performed with anti-GFP. […] FIG. 4C—The PI3K inhibitor […] inhibits the binding of Akt to PAR₄. Treatment of HEK 293 cells with LY294002 for various time points or not, following transient transfection with flg-Par4 and AYPGKF activation was performed. Cell lysates were immunoprecipitated with anti-flg antibodies, and anti-Akt was used to assess the association of Akt with the PAR₄ C-tail. […] Amino acid residues of PAR₄- and PAR₂-PH binding motifs. FIG. 4E—mutations inserted into flg-Par4 generated flg-Par4MutE346A. HEK293 cells were transiently transfected with either wt flg-Par4 or flg-Par4MutE346A. IP of cell lysates following PAR₄ activation was carried out using anti-flg abs. Detection of PAR₄-Akt association was performed by anti Akt Abs. While association with wt Par4 is seen after 5 and 10 min AYPGKF PAR₄ activation, when using flg-Par4 E346A no inhibition is seen and effective association with Akt is seen at 30 min activation. FIG. 4F—utations inserted into flg-Par4 generated flg-Par4Mut F347A and flg-Par4Mut D349A. […]

T1 sequence (P31749 whole entry): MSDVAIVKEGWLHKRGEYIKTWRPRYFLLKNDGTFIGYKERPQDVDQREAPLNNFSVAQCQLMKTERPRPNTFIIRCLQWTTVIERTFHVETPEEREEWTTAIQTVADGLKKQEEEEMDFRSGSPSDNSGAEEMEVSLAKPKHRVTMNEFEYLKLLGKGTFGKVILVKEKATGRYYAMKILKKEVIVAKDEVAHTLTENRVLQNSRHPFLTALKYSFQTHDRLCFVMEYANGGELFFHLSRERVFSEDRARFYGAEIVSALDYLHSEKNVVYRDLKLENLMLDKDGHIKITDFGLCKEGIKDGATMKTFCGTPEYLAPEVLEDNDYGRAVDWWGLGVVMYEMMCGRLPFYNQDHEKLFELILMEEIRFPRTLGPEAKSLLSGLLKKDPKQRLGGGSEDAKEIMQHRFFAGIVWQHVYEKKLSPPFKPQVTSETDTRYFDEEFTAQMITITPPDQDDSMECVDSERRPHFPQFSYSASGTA
T3 sequence (P31749 whole entry): as above
T2 sequence (P31749 whole entry): as above

Molecule: H-DTVASKASAEGG-OH [CTP4-C, downstream PAR4 C-tail peptide]
inhibition of PAR4 induced Matrigel invasion (MDA-MB-231 cells): no effect

Molecule: H-YVSAEFRDKVRA-OH [Peptide 1]
inhibition of PAR4-Akt association (IP) (PAR4-Akt association; listed as CTP4-A): inhibited; also recorded: potently inhibits | inhibition of interaction between PAR4 and Akt (PAR4 and Akt): effectively inhibited | inhibition of PAR4 induced Matrigel invasion (MDA-MB-231 cells; listed as CTP4-A): significantly inhibit; also recorded: attenuated

inhibition of PAR4-Akt association (IP) (PAR4-Akt association): not
Molecule: H-RAGLFQRSPGDT-OH [CTP4-B, downstream PAR4 C-tail peptide]
inhibition of PAR4 induced Matrigel invasion (MDA-MB-231 cells): no effect

binding result [1]: no binding
B1: hPar4 D349A (receptor, human, UniProt Q96RI0 48-385, looked up)
chain: GYPGQVCANDSDTLELPDSSRALLLGWVPTRLVPALYGLVLVVGLPANGLALWVLATQAPRLPSTMLLMNLAAADLLLALALPPRIAYHLRGQRWPFGEAACRLATAALYGHMYGSVLLLAAVSLDRYLALVHPLRARALRGRRLALGLCMAAWLMAAALALPLTLQRQTFRLARSDRVLCHDALPLDAQASHWQPAFTCLALLGCFLPLLAMLLCYGATLHTLAASGRRYGHALRLTAVVLASAVAFFVPSNLLLLLHYSDPSPSAWGNLYGAYVPSLALSTLNSCVDPFIYYYVSAEFRAKVRAGLFQRSPGDTVASKASAEGGSRGMGTHSSLLQ
notes: whole, on cells; also called PAR4MutD; flg-Par4Mut D349A
